These results are taken from the array DNA melting data of Ke et al..

A word on the Tm: it is the temperature at the midpoint of the melting transition.

This series is described as follows: melting temperature; melt of duplexes. The following applies: sodium 0.0675 M; strand 1 µM.
For the substance “CGACGTGCCAGATGTGCTG+CAGCACATAACGCACGTCG ((((((((...((((((((+))))))))...))))))))”, the melting temperature (Tm) was 48.6 °C.

“CGACGTGCCACATGTGCTG+CAGCACATAGCGCACGTCG ((((((((...((((((((+))))))))...))))))))”: the midpoint of thermal melting (Tm) turned out to be 48.5 °C.

With “CGACGTGCGCGATGTGCTG+CAGCACATAGCGCACGTCG ((((((((((.((((((((+)))))))).))))))))))”, the Tm came out at 63 °C.

Take “CGACGTGCTATATGTGCTG+CAGCACATTCCGCACGTCG ((((((((...((((((((+))))))))...))))))))”: the Tm amounted to 47.8 °C.

For “CGACGTGCATAATGTGCTG+CAGCACATCCCGCACGTCG ((((((((...((((((((+))))))))...))))))))”, the Tm turned out to be 46.9 °C.

In the case of “CGACGTGCGTTATGTGCTG+CAGCACATTAGGCACGTCG ((((((((.(.((((((((+)))))))).).))))))))”, the Tm stood at 52.2 °C.

Take “CGACGTGCTAGATGTGCTG+CAGCACATTGTGCACGTCG ((((((((...((((((((+))))))))...))))))))”: the Tm came out at 48.5 °C.

“CGACGTGCGCCATGTGCTG+CAGCACATGTCGCACGTCG (((((((((.(((((((((+))))))))).)))))))))”: the Tm stood at 59.7 °C.

Turning to “CGACGTGCTGAATGTGCTG+CAGCACATGCGGCACGTCG ((((((((.(.((((((((+)))))))).).))))))))”, the Tm turned out to be 55.3 °C.

For the substance “CGACGTGCAAGATGTGCTG+CAGCACATGTGGCACGTCG ((((((((.(.((((((((+)))))))).).))))))))”, the Tm is 52.8 °C.

On to “CGACGTGCCCCATGTGCTG+CAGCACATTCGGCACGTCG (((((((((..((((((((+))))))))..)))))))))”, for which the melting temperature (Tm) is 51.5 °C.

Take “CGACGTGCCTTATGTGCTG+CAGCACATAGAGCACGTCG ((((((((..(((((((((+)))))))))..))))))))”: the Tm came to 51.8 °C.

As for “CGACGTGCACGATGTGCTG+CAGCACATGTAGCACGTCG ((((((((...((((((((+))))))))...))))))))”, the Tm was 48.7 °C.

Turning to “CGACGTGCACAATGTGCTG+CAGCACATATGGCACGTCG ((((((((...((((((((+))))))))...))))))))”, the Tm was 47.7 °C.

In the case of “CGACGTGCAGCATGTGCTG+CAGCACATCTGGCACGTCG ((((((((...((((((((+))))))))...))))))))”, the melting temperature (Tm) is 49.5 °C.

Regarding “CGACGTGCTCCATGTGCTG+CAGCACATCGAGCACGTCG ((((((((((.((((((((+)))))))).))))))))))”, the midpoint of thermal melting (Tm) is 55.2 °C.

With “CGACGTGCTTAATGTGCTG+CAGCACATGTGGCACGTCG ((((((((...((((((((+))))))))...))))))))”, the Tm is 51.9 °C.

Take “CGACGTGCAGGATGTGCTG+CAGCACATACCGCACGTCG ((((((((.(.((((((((+)))))))).).))))))))”: the midpoint of thermal melting (Tm) was 53.7 °C.

In the case of “CGACGTGCCCTATGTGCTG+CAGCACATCATGCACGTCG ((((((((...((((((((+))))))))...))))))))”, the melting temperature (Tm) was 46.8 °C.

For “CGACGTGCGAGATGTGCTG+CAGCACATAGGGCACGTCG ((((((((...((((((((+))))))))...))))))))”, the melting temperature (Tm) came to 50.7 °C.

With “CGACGTGCTGAATGTGCTG+CAGCACATGTCGCACGTCG ((((((((...((((((((+))))))))...))))))))”, the melting temperature (Tm) amounted to 52.1 °C.

With “CGACGTGCCCCATGTGCTG+CAGCACATCGAGCACGTCG ((((((((.(.((((((((+)))))))).).))))))))”, the melting temperature (Tm) came to 48.7 °C.

As to “CGACGTGCAACATGTGCTG+CAGCACATAAGGCACGTCG ((((((((...((((((((+))))))))...))))))))”, the midpoint of thermal melting (Tm) turned out to be 47.8 °C.

Take “CGACGTGCAGAATGTGCTG+CAGCACATTCAGCACGTCG ((((((((.((((((((((+)))))))))).))))))))”: the Tm worked out at 57.9 °C.

Turning to “CGACGTGCGGAATGTGCTG+CAGCACATTGCGCACGTCG (((((((((.(((((((((+))))))))).)))))))))”, the midpoint of thermal melting (Tm) came to 61.2 °C.

As to “CGACGTGCGCGATGTGCTG+CAGCACATGTGGCACGTCG ((((((((...((((((((+))))))))...))))))))”, the Tm came to 51.7 °C.

With “CGACGTGCCGGATGTGCTG+CAGCACATGTCGCACGTCG ((((((((...((((((((+))))))))...))))))))”, the Tm was 49.4 °C.

Turning to “CGACGTGCGAAATGTGCTG+CAGCACATACAGCACGTCG ((((((((...((((((((+))))))))...))))))))”, the melting temperature (Tm) came out at 53.3 °C.

For “CGACGTGCCCTATGTGCTG+CAGCACATGAAGCACGTCG ((((((((...((((((((+))))))))...))))))))”, the midpoint of thermal melting (Tm) amounted to 49 °C.

Turning to “CGACGTGCCCTATGTGCTG+CAGCACATGCAGCACGTCG ((((((((...((((((((+))))))))...))))))))”, the melting temperature (Tm) worked out at 49.7 °C.

Regarding “CGACGTGCCCGATGTGCTG+CAGCACATATAGCACGTCG ((((((((...((((((((+))))))))...))))))))”, the midpoint of thermal melting (Tm) stood at 49 °C.

As to “CGACGTGCCCAATGTGCTG+CAGCACATGTAGCACGTCG ((((((((...((((((((+))))))))...))))))))”, the Tm was found to be 50.6 °C.

For the substance “CGACGTGCTACATGTGCTG+CAGCACATCGCGCACGTCG ((((((((...((((((((+))))))))...))))))))”, the Tm was found to be 46.9 °C.

“CGACGTGCGGCATGTGCTG+CAGCACATTCTGCACGTCG ((((((((.(.((((((((+)))))))).).))))))))”: the Tm was found to be 53.1 °C.

Turning to “CGACGTGCTGCATGTGCTG+CAGCACATTCGGCACGTCG ((((((((.(.((((((((+)))))))).).))))))))”, the Tm was found to be 53.2 °C.

For the substance “CGACGTGCTAAATGTGCTG+CAGCACATTTAGCACGTCG (((((((((((((((((((+)))))))))))))))))))”, the Tm amounted to 61.6 °C.

For the substance “CGACGTGCACGATGTGCTG+CAGCACATTTTGCACGTCG (((((((((..((((((((+))))))))..)))))))))”, the Tm was 48.5 °C.

Regarding “CGACGTGCAACATGTGCTG+CAGCACATGTGGCACGTCG ((((((((.((((((((((+)))))))))).))))))))”, the melting temperature (Tm) came to 59.3 °C.

Turning to “CGACGTGCTAGATGTGCTG+CAGCACATATCGCACGTCG ((((((((.(.((((((((+)))))))).).))))))))”, the Tm was 51 °C.

As to “CGACGTGCGAGATGTGCTG+CAGCACATGTTGCACGTCG ((((((((.(.((((((((+)))))))).).))))))))”, the Tm turned out to be 54.3 °C.

Turning to “CGACGTGCGCGATGTGCTG+CAGCACATCCCGCACGTCG (((((((((.(((((((((+))))))))).)))))))))”, the Tm turned out to be 59.2 °C.

In the case of “CGACGTGCTGCATGTGCTG+CAGCACATTCCGCACGTCG ((((((((.(.((((((((+)))))))).).))))))))”, the midpoint of thermal melting (Tm) is 49.3 °C.

With “CGACGTGCTTAATGTGCTG+CAGCACATACGGCACGTCG ((((((((...((((((((+))))))))...))))))))”, the Tm came out at 48.3 °C.

Consider “CGACGTGCGCCATGTGCTG+CAGCACATAGTGCACGTCG ((((((((.(.((((((((+)))))))).).))))))))”, for which the melting temperature (Tm) was 49 °C.

As for “CGACGTGCTGTATGTGCTG+CAGCACATGGGGCACGTCG ((((((((...((((((((+))))))))...))))))))”, the melting temperature (Tm) was found to be 51.4 °C.

As to “CGACGTGCTAGATGTGCTG+CAGCACATACGGCACGTCG ((((((((...((((((((+))))))))...))))))))”, the midpoint of thermal melting (Tm) is 49.9 °C.

As for “CGACGTGCGGGATGTGCTG+CAGCACATTAAGCACGTCG ((((((((...((((((((+))))))))...))))))))”, the Tm worked out at 53.9 °C.
